Data on three molecules can be found in publication PMC3401474.

Targets include rat HER2 (rHER2) (rat, UniProt P06494 23-654); human HER2 (hHER2) (human, UniProt P04626 23-652); human EphA2 (hEphA2) (human, UniProt P29317 24-537).
Common to all, as to assay: SPR

Chain of rat HER2 (rHER2) (P06494 23-654): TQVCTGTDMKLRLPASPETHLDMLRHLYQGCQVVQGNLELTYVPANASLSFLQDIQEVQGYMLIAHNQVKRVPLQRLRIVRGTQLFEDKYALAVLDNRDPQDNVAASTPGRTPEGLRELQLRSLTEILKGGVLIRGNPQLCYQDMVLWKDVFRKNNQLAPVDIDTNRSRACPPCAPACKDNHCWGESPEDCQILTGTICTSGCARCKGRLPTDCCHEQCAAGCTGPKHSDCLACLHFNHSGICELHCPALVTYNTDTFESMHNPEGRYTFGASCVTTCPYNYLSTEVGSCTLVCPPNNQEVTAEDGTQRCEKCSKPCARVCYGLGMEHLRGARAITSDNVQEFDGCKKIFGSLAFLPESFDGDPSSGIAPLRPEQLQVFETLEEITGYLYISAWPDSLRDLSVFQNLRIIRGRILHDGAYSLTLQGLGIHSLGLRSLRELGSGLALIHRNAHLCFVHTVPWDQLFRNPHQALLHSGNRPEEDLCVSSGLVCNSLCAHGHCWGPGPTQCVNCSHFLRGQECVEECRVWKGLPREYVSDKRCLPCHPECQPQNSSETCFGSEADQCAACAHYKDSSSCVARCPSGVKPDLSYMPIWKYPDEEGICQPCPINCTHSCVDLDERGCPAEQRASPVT
Chain of human EphA2 (hEphA2) (P29317 24-537): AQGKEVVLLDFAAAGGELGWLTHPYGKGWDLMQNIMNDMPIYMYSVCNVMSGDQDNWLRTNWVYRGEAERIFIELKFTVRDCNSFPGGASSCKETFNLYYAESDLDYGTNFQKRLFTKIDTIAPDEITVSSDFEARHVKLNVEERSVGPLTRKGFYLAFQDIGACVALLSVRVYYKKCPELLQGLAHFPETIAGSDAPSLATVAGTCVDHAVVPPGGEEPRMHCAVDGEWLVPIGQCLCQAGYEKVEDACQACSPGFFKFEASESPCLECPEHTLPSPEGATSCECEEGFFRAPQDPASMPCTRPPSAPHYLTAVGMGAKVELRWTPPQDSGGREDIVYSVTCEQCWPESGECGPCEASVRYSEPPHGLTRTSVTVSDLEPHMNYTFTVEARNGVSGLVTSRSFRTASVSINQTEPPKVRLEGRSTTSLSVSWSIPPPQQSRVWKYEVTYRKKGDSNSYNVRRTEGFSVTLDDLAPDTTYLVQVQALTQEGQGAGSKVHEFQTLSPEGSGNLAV

B1: E1 (XNA)
RNA: GGGAGGACGAUGCGGUCCUGUCGUCUGUUCGUCCCCAGACGACUCGCCCGA
modifications: 2'-fluoro C and U (2'-OH A and G)
With B1, binding in the data set with rat HER2 (rHER2) was characterised by a dissociation constant (Kd) of 60.8 nM.

B2: C1 (XNA)
RNA: GGGAGGACGAUGCGGCUGUCUACCUUCUACUGCCGCAGACGACUCGCCCGA
modifications: 2'-fluoro C and U (2'-OH A and G)
With B2, binding with rat HER2 (rHER2) was characterised by a dissociation constant (Kd) of 45.8 nM. The binding result with human HER2 (hHER2) and with human EphA2 (hEphA2) was “no binding” each time.

B3: B1 (XNA)
RNA: GGGAGGACGAUGCGGUCUGUUGUGCUUGAUAUGCCCCAGACGACUCGCCCGA
modifications: 2'-fluoro C and U (2'-OH A and G)
As for B3, in the data set with rat HER2 (rHER2), the Kd came to 85.2 nM. For the same molecule, the binding result with human HER2 (hHER2) and with human EphA2 (hEphA2) was “no binding” throughout.
